# Test results as given in paper PMC8626645 (Molecular Pharmacology, 2021).
# How the values were obtained:
# [1] = in vivo; cited from earlier work
# Excerpt: Pathologic increases in blood glucose, the central metabolic defect in T2D, occur chiefly because of failure of pancreatic β cells to release enough of the glucoregulatory hormone insulin and overweight-related tissue resistance to insulin action.
# [2] = molecular target: SNAP-GLP-1R (HEK293-SNAP-GLP-1R cells) (UniProt P43220); assay: FRET or BRET
# UniProt P43220, sequence (P43220 24-463): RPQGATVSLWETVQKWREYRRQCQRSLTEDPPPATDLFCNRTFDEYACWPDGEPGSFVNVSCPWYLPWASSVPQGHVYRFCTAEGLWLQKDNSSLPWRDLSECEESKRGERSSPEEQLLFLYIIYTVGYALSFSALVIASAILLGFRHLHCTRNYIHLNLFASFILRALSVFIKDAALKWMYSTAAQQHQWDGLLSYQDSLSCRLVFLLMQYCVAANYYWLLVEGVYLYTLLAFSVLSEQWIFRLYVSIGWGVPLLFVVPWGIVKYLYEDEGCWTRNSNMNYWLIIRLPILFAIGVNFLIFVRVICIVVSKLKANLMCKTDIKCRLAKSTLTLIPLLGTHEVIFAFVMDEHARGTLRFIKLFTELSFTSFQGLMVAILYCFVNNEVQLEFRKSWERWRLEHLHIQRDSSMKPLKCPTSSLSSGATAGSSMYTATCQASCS
substance,measurement,setting,value
GLP-1(7-36)NH2: the endogenous ligand for GLP-1R,inactivation in the circulation,[1],enzymatically inactivated in the circulation within minutes
exendin-4 (from UniProt P26349 48-87) (peptide),Log Ki (M),[2],-9.2 log M
